How the values were obtained:
Assay in all cases: split reporter
[1] = target: NRT2.1 S501D, rBiFC fusion (Arabidopsis thaliana, UniProt O82811 1-530, S501D)
[2] = target: NRT2.1 wild type, rBiFC fusion (Arabidopsis thaliana, UniProt O82811 1-530)
[3] = target: NRT2.1 S501A, rBiFC fusion (Arabidopsis thaliana, UniProt O82811 1-530, S501A)
Chain of NRT2.1 S501A, rBiFC fusion (O82811 whole entry S501A, the tested form may be a part): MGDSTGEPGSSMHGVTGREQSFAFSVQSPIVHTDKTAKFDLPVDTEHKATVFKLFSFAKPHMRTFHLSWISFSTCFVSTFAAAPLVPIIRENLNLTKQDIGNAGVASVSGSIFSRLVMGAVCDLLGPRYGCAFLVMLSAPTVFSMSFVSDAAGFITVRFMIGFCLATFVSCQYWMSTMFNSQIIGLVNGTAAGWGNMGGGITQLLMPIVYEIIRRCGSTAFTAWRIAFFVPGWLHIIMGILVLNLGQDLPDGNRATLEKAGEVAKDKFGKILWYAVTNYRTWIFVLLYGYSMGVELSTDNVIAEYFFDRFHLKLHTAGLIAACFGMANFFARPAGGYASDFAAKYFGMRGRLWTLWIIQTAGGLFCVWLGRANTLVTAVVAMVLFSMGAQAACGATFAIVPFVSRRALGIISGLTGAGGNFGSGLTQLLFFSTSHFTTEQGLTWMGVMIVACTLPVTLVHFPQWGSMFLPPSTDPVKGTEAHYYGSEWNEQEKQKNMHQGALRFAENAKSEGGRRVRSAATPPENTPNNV

Chain of NRT2.1 S501D, rBiFC fusion (O82811 whole entry S501D, the tested form may be a part): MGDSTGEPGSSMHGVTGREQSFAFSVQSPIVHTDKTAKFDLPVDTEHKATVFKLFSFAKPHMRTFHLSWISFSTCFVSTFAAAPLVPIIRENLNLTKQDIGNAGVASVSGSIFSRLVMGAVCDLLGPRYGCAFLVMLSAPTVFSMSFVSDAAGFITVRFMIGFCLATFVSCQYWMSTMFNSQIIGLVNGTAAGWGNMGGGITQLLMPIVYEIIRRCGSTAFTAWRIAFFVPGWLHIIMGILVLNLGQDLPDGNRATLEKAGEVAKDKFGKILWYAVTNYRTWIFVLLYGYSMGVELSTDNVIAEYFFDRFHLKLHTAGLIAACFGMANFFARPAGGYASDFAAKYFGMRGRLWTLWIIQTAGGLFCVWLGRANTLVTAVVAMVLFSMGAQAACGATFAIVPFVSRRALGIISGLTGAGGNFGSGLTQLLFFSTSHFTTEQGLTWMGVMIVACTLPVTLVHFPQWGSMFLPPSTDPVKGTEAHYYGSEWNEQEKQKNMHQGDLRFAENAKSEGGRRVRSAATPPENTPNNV
Chain of NRT2.1 wild type, rBiFC fusion (O82811 whole entry, the tested form may be a part): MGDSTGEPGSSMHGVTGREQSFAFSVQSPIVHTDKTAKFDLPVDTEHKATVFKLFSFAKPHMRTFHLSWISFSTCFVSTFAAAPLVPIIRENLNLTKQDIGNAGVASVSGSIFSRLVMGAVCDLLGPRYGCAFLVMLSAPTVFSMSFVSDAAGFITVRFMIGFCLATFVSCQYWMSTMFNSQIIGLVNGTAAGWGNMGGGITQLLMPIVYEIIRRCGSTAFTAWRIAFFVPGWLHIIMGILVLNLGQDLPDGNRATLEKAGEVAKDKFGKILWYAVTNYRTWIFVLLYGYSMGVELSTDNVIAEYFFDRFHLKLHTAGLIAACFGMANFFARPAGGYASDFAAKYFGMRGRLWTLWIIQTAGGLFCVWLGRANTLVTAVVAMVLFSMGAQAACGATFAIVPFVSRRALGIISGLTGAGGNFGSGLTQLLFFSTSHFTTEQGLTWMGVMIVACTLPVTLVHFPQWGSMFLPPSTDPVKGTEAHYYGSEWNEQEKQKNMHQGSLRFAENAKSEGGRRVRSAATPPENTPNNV

B1: NAR2.1, rBiFC fusion (natural protein, Arabidopsis thaliana, UniProt Q9FGS5 23-210, looked up)
chain: AEKVRLFKELDKGALDVTTKPSREGPGVVLDAGKDTLNITWTLSSIGSKREAEFKIIKVKLCYAPPSQVDRPWRKTHDELFKDKTCPHKIIAKPYDKTLQSTTWTLERDIPTGTYFVRAYAVDAIGHEVAYGQSTDDAKKTNLFSVQAISGRHASLDIASICFSVFSVVALVVFFVNEKRKAKIEQSK
YFP fluorescence as percent of RFP fluorescence (rBiFC) [1]: ~50 % of RFP fluorescence | YFP fluorescence as percent of RFP fluorescence (rBiFC) [2]: ~40 % of RFP fluorescence | YFP fluorescence as percent of RFP fluorescence (rBiFC) [3]: ~50 % of RFP fluorescence
